Reference: PMC7663122, “Protein-Assisted Room-Temperature Assembly of Rigid, Immobile Holliday Junctions and Hierarchical DNA Nanostructures”

Assays:
[1] = target: T1, Redβ (single-strand annealing protein) (UniProt P03698 1-261); experiment: SEC, gel and AFM; excess Redβ (ssDNA/Redβ 1:25 stated), 25 °C, 1 mM MgCl2; B1 buffer: 50 mM Tris-HCl pH 8.0, 150 mM NaCl, 1 mM MgCl2, 25 °C (sticky-end assemblies); 44mer coating and annealing at 37 °C; SEC in 100 mM Tris-HCl pH 8.0, 150 mM NaCl, 1 mM MgCl2; settings: protein: recombinant, tags: Strep-tag II, four-way junction
T1 sequence: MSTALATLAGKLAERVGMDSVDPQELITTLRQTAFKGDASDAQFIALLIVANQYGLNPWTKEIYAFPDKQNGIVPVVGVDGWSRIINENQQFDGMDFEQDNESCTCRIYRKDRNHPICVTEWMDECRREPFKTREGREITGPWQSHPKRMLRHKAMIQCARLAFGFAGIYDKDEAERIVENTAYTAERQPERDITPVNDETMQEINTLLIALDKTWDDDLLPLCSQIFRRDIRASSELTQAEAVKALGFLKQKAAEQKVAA

[2] = target: T1, Redβ (single-strand annealing protein); experiment: EMSA (agarose), SEC and AFM; strands coated first, then mixed; ssDNA/Redβ 1:1 (incomplete) and 1:2 (saturated); B1 buffer: 50 mM Tris-HCl pH 8.0, 150 mM NaCl, 1 mM MgCl2, 25 °C (sticky-end assemblies); 44mer coating and annealing at 37 °C; SEC in 100 mM Tris-HCl pH 8.0, 150 mM NaCl, 1 mM MgCl2; settings: protein: recombinant; tags: Strep-tag II; blunt-ended immobile four-way junction, 44 bp arms
[3] = target: T1, Redβ (single-strand annealing protein); experiment: EMSA (agarose) and AFM; strands coated first, then mixed; ssDNA/Redβ 1:1 and 1:2; completely coated at 1:1, slightly increased affinity vs 44mer; B1 buffer: 50 mM Tris-HCl pH 8.0, 150 mM NaCl, 1 mM MgCl2, 25 °C (sticky-end assemblies); 44mer coating and annealing at 37 °C; SEC in 100 mM Tris-HCl pH 8.0, 150 mM NaCl, 1 mM MgCl2; settings: protein: recombinant; tags: Strep-tag II; blunt-ended immobile four-way junction, 33 bp arms
[4] = target: T1, Redβ (single-strand annealing protein); experiment: EMSA (agarose) and AFM; strands coated first at 37 °C, then mixed; ssDNA/Redβ 1:1 to 1:4; weak interaction, residual free ssDNA at 1:1; B1 buffer: 50 mM Tris-HCl pH 8.0, 150 mM NaCl, 1 mM MgCl2, 25 °C (sticky-end assemblies); 44mer coating and annealing at 37 °C; SEC in 100 mM Tris-HCl pH 8.0, 150 mM NaCl, 1 mM MgCl2; settings: protein: recombinant; tags: Strep-tag II; blunt-ended immobile four-way junction, 22 bp arms

B1: S5S8 sticky-end Holliday junction (structured_DNA)
DNA 1: ATGTTGATCGGGAGAGGTCGAACCCTCTTTGATATTTGTGACTTTCGGGGCAACTATTTCCTCGGCGACCACGTTCGGTGACGGACCT
DNA 2: AGGTCCGTCACCGAACGTGGTCGCCGAGGAAATAGTTGCCCCGACAGGAAGCTAACTAACATGAGACAAAAATGTGGCCTCGTTACGG
DNA 3: TCTCATGTTAGTTAGCTTCCTGACGCCTGGCCGTATCTTCGGCTTACTATCGCCTTCAGCATGACC
DNA 4: AGCCGAAGATACGGCCAGGCGTAAGTCACAAATATCAAAGAGGGTTCGACCTCTCCCGATCAACAT
[1]; two 3' overhangs 22 nt (strands 2 and 3)
  binding result: binds

B2: S1S4 sticky-end Holliday junction (structured_DNA)
DNA 1: GATTCCTTCCGGGCGAATTTACCCCAGTGAACGCTGGTCCCCGCGGTCATGCTGAAGGCGATAGTA
DNA 2: GCGGGGACCAGCGTTCACTGGGTTATTGGGTATGACGAGCTTAGATTTGGTATATGGTCTCGACTA
DNA 3: TAGTCGAGACCATATACCAAATCTAAGCTCGTCATACCCAATAAGATGTACGTTGGCGGACAGTTACATATTGTGCGCTGCCGGTGGC
DNA 4: GCCACCGGCAGCGCACAATATGTAACTGTCCGCCAACGTACATCGTAAATTCGCCCGGAAGGAATCCCGTAACGAGGCCACATTTTTG
[1]; two 3' overhangs 22 nt (strands 1 and 4)
  binding result: binds

B3: 88mer Holliday junction (structured_DNA)
DNA 1: CAGTTCCCTAAGACATCGACGTAGGACCTTGATCAACGCAGCTATGACTTCAGAGATTCTCTTATCTGGAAGCGTCCACGAACCGGCC
DNA 2: GGCCGGTTCGTGGACGCTTCCAGATAAGAGAATCTCTGAAGTCATTTGTACACTTTTCTATTCACGAGCAAAGCCTGGTATACTAGAA
DNA 3: TTCTAGTATACCAGGCTTTGCTCGTGAATAGAAAAGTGTACAAACCCACATTGCCATCGGGCGAAATGGGGTGTGCAGCGCATGCTCG
DNA 4: CGAGCATGCGCTGCACACCCCATTTCGCCCGATGGCAATGTGGGTAGCTGCGTTGATCAAGGTCCTACGTCGATGTCTTAGGGAACTG
[2]
  binding result: binds

B4: 66mer Holliday junction (structured_DNA)
DNA 1: ATGCCGCATACAACAAGTGGGGGGATGAATAGGATGTACTGCCTTTTTTATCGACTGTCCAATATG
DNA 2: CATATTGGACAGTCGATAAAAAAGGCAGTACATACTTGGTCCACTCTGGTACAAGATGAGGTGGAT
DNA 3: ATCCACCTCATCTTGTACCAGAGTGGACCAAGTAGTGCGCGATTGACGTTCGAGGCGGACTCTCCT
DNA 4: AGGAGAGTCCGCCTCGAACGTCAATCGCGCACTCCTATTCATCCCCCCACTTGTTGTATGCGGCAT
[3]
  binding result: binds

B5: 44mer Holliday junction (structured_DNA)
DNA 1: CGATGCGAAATCTGTACGCGCACCACGTGAAGGTGCTAGTCCCC
DNA 2: GAATGTGTTGATGGTTAAGTTCTGCGCGTACAGATTTCGCATCG
DNA 3: GTGTCTATCATTAGCGGCTCAAGAACTTAACCATCAACACATTC
DNA 4: GGGGACTAGCACCTTCACGTGGTTGAGCCGCTAATGATAGACAC
[4]
  binding result: binds
